Measurements: paper PMC9177745 (Biochemistry, 2022)

What was measured:
[1] = target: T1, PhnY (in the 1:1 PhnY/Z system) (uncultured bacterium HF130_AEPn_1, UniProt D0E8I4); test: steady-state kinetics of the coupled PhnY/Z system; type: biochemical; details: two-enzyme PhnY/Z system; apparent Km of the system
T1 sequence (D0E8I4 1-262): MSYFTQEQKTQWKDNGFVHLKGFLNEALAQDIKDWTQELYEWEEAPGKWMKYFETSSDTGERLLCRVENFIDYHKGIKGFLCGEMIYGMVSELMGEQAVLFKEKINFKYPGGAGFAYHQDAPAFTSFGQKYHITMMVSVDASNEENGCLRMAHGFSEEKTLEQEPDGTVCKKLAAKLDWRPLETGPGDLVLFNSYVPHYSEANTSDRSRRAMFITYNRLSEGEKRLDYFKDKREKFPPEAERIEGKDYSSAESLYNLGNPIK

[2] = substrate: NC[C@H](O)P(=O)(O)O; test: steady-state kinetics, C-P bond cleavage; type: biochemical, Fonsecaea multimorphosa; details: O2; mixed-valent diiron HD-domain site
[3] = substrate: NCCCP(=O)(O)O; test: steady-state kinetics, conversion to inorganic phosphate; type: biochemical, Fonsecaea multimorphosa; details: two-step reaction to phosphate; co-substrates presumably as for 2AEP
[4] = substrate: NCCP(=O)(O)O; test: as above; type: biochemical, Fonsecaea multimorphosa; details: O2, alpha-ketoglutarate, Fe(II), ascorbate; apparent Km of the two-step reaction
[5] = substrate: NC[C@H](O)P(=O)(O)O; test: steady-state kinetics, C-P bond cleavage; type: biochemical, uncultured bacterium HF130_AEPn_1; details: O2; mixed-valent diiron site

NCCCP(=O)(O)O [3APP]
KM [1]: the PhnY/Z system is also able to act on 3APP

B1: PhoF (Fonsecaea multimorphosa CBS 102226) (protein)
chain: MSVPEEQMQFFRKNGYLILRNVLSEEETKDLQRWAQEVHDWPTDANSPWMPYEEINAQGQTVLCRTENYANSHAGLNGLLRGQKLLNLLKQLSGEDMLLFKEKINYKLAGSGGFAPHVDSTAYTHIKNIKHLAILLAVDPSDMSNGGLEVVEGSHEMNVPIGEDNCIEPDWVKQQKWTPVELKAGQVLVFGSYLAHRSGANHSNQDRKALYATYNCAREGDLHDEYYAHRKVVWPPAQLRKKGEEYKVGALVYGFGSPMLSVDAGKQLEFDEEEWKSKPRAAKAASRIIDILNQYGNSDYIGEPISQIEHSLQCAYLAAQNMADPQTVAAALLHDIGQIIPERDAEHILGGAQVRSMRQNSGIGADSRSSDSVGRVSHETLGAQYLLALGFPAKVAELVEAHVPAKRYLCATEKGYYSTLSDASKESLRFQGGPMSPDEVRLWQEGSWADEKANLRRWDDGAKVVGLTVPGLETYRPVLEQVLSS
Km [2]: 43 ± 23 µM | kcat [2]: 9 ± 2 s⁻¹ | Km [3]: 305 ± 263 µM | kcat [3]: 0.57 ± 0.30 s⁻¹ | Km [4]: 197 ± 73 µM | kcat [4]: 1.16 ± 0.17 s⁻¹

B2: PhnZ (uncultured bacterium HF130_AEPn_1) (protein)
chain: MSLSNSSKVSVLISLLEKSRDLDYIGEAINQLEHSLQCAYFAQRSGADNEMVLAALLHDLGHYCNDTSFEDMGGYGVWQHEKVGADYLRGLGFSERVACLIEGHVAAKRYLVSSKASYLKNLSDASRKTLEYQGGPMDEGERRLFEEREDFKDCLKIRAWDEKGKQTDLKVPGPEHYRKMMEEHLSENQN
Km [5]: 107 ± 29 µM | kcat [5]: 15 ± 3 s⁻¹
